Read-outs that look alike come from different tables or passages of the source.
Columns and labels:
human Kv1.3 [1] = biological target: T1, human Kv1.3 (Homo sapiens, UniProt P22001); test: cell-based or functional assay
human Kv1.1 = human Kv1.1 (Homo sapiens, UniProt Q09470); test: cell-based or functional assay
[2] = tested on: IL-2 secretion from T cells in human whole blood; assay type: cell-based; conditions: read-out: WB (IL-2) IC50 (nM, Avg)
hKv1.3 = hKv1.3 (Homo sapiens, UniProt P22001); test: cell-based; assay type: cell-based; conditions: Kv1.3 (IWQ) IC50 (nM, Avg)
[3] = tested on: IFN-g secretion from T cells in human whole blood; assay type: cell-based; conditions: read-out: WB (IFNg) IC50 (nM, Avg)
human Kv1.3 [4] = biological target: T1, human Kv1.3; test: cell-based or functional assay; remark: listed apart in the source

T1 sequence (P22001 whole entry): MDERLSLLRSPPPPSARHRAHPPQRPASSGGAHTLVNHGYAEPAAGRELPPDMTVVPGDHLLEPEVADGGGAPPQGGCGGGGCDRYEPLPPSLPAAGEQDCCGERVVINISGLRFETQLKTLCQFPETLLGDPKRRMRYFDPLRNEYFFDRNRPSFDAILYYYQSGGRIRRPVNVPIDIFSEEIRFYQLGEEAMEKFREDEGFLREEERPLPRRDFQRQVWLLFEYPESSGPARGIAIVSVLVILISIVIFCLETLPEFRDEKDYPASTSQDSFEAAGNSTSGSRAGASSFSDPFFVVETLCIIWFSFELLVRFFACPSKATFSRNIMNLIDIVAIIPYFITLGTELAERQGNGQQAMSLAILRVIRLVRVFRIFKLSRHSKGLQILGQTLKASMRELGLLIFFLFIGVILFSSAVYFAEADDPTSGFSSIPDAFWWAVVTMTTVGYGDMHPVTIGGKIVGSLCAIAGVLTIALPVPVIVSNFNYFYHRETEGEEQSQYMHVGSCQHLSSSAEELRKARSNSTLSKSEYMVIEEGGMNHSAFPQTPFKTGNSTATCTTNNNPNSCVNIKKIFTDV
hKv1.3, sequence (P22001 whole entry): as above
human Kv1.1, sequence (Q09470 whole entry): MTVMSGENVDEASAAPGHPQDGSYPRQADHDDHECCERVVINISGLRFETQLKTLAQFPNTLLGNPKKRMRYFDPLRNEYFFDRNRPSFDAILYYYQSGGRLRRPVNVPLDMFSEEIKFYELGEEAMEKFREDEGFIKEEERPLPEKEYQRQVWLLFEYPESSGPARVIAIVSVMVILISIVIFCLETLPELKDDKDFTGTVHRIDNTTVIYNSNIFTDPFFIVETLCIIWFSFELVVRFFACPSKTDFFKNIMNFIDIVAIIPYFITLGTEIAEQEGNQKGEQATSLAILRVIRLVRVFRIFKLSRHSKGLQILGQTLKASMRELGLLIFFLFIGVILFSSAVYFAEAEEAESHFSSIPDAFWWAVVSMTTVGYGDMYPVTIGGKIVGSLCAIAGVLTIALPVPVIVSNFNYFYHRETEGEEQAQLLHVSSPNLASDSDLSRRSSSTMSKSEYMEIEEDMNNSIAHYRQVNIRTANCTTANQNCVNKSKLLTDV

| Compound | Kv1.3 (IWQ) IC50 (human Kv1.3 [1]) | WB (IFNg) IC50 (human Kv1.3 [1]) | WB (IL-2) IC50 (human Kv1.3 [1]) | other results |
| --- | --- | --- | --- | --- |
| 20kDaPEG-[1-Nal16]ShK (peptide) | 39.1 nM | 100 nM | 100 nM |  |
| 30kDaPEG-ShK (peptide) | 1.93 nM | 2.42 nM | 0.372 nM | Kv1.1 (IWQ) IC50 (human Kv1.1): 0.182 nM |
| CC[C@H](C)[C@@H]1NC(=O)[C@@H](NC(=O)[C@H](CO)NC(=O)[C@@H](N)CCCNC(=N)N)CSSC[C@@H](C(=O)O)NC(=O)[C@H]([C@@H](C)O)NC(=O)CNC(=O)[C@@H]2CSSC[C@@H]3NC(=O)[C@H](CCC(N)=O)NC(=O)[C@H](Cc4ccccc4)NC(=O)[C@H](C)NC(=O)[C@H]([C@@H](C)O)NC(=O)[C@H](CSSC[C@H](NC(=O)[C@H](Cc4ccccc4)NC(=O)[C@H](CCCCN)NC(=O)[C@H](CC(C)C)NC(=O)[C@H](CCCNC(=N)N)NC(=O)[C@H](Cc4ccc(O)cc4)NC(=O)[C@H](CCCCN)NC(=O)[C@H](CCSC)NC(=O)[C@H](CO)NC(=O)[C@H](Cc4c[nH]cn4)NC(=O)[C@H](CCCCN)NC3=O)C(=O)N[C@@H](CCCNC(=N)N)C(=O)N[C@@H](CCCCN)C(=O)N[C@@H]([C@@H](C)O)C(=O)N2)NC(=O)[C@H](CCCNC(=N)N)NC(=O)[C@H](CO)NC(=O)[C@H](CCCCN)NC(=O)[C@@H]2CCCN2C(=O)[C@H]([C@@H](C)CC)NC(=O)[C@H]([C@@H](C)O)NC(=O)[C@H](CC(=O)O)NC1=O [[Lys26]ShK] |  |  |  | IC50 [2]: 0.273 nM; IC50 (hKv1.3): 0.115 nM; IC50 [3]: 0.495 nM |
| CC[C@H](C)[C@@H]1NC(=O)[C@@H](NC(=O)[C@H](CO)NC(=O)[C@@H](N)CCCNC(=N)N)CSSC[C@@H](C(=O)O)NC(=O)[C@H]([C@@H](C)O)NC(=O)CNC(=O)[C@@H]2CSSC[C@@H]3NC(=O)[C@H](CCC(N)=O)NC(=O)[C@H](Cc4ccccc4)NC(=O)[C@H](C)NC(=O)[C@H]([C@@H](C)O)NC(=O)[C@H](CSSC[C@H](NC(=O)[C@H](CCCCN)NC(=O)[C@H](CO)NC(=O)[C@H](CC(C)C)NC(=O)[C@H](CCCNC(=N)N)NC(=O)[C@H](Cc4ccc(O)cc4)NC(=O)[C@H](CCCCN)NC(=O)[C@H](CCSC)NC(=O)[C@H](CO)NC(=O)[C@H](Cc4c[nH]cn4)NC(=O)[C@H](CCCCN)NC3=O)C(=O)N[C@@H](CCCNC(=N)N)C(=O)N[C@@H](CCCCN)C(=O)N[C@@H]([C@@H](C)O)C(=O)N2)NC(=O)[C@H](CCCNC(=N)N)NC(=O)[C@H](CO)NC(=O)[C@H](CCCCN)NC(=O)[C@@H]2CCCN2C(=O)[C@H]([C@@H](C)CC)NC(=O)[C@H]([C@@H](C)O)NC(=O)[C@H](CC(=O)O)NC1=O [[Lys27]ShK] |  |  |  | IC50 [2]: 3.48 nM; IC50 (hKv1.3): 0.928 nM; IC50 [3]: 11.8 nM |
| CC[C@H](C)[C@@H]1NC(=O)[C@@H](NC(=O)[C@H](CO)NC(=O)[C@@H](N)CCCNC(=N)N)CSSC[C@@H](C(=O)O)NC(=O)[C@H]([C@@H](C)O)NC(=O)CNC(=O)[C@@H]2CSSC[C@@H]3NC(=O)[C@H](CCC(N)=O)NC(=O)[C@H](Cc4ccccc4)NC(=O)[C@H](C)NC(=O)[C@H]([C@@H](C)O)NC(=O)[C@H](CSSC[C@H](NC(=O)[C@H](Cc4ccccc4)NC(=O)[C@H](CO)NC(=O)[C@H](CC(C)C)NC(=O)[C@H](CCCNC(=N)N)NC(=O)[C@H](Cc4ccc(O)cc4)NC(=O)[C@H](CCCCN)NC(=O)[C@H](CCSC)NC(=O)[C@H](CO)NC(=O)[C@H](Cc4c[nH]cn4)NC(=O)[C@H](CCCCN)NC3=O)C(=O)N[C@@H](CCCCN)C(=O)N[C@@H](CCCCN)C(=O)N[C@@H]([C@@H](C)O)C(=O)N2)NC(=O)[C@H](CCCNC(=N)N)NC(=O)[C@H](CO)NC(=O)[C@H](CCCCN)NC(=O)[C@@H]2CCCN2C(=O)[C@H]([C@@H](C)CC)NC(=O)[C@H]([C@@H](C)O)NC(=O)[C@H](CC(=O)O)NC1=O [[Lys29]ShK] |  |  |  | IC50 [2]: 0.04 nM; IC50 (hKv1.3): 0.158 nM; IC50 [3]: 0.071 nM |
| CC[C@H](C)[C@@H]1NC(=O)[C@@H](NC(=O)[C@H](CO)NC(=O)[C@@H](N)CCCNC(=N)N)CSSC[C@@H](C(=O)O)NC(=O)[C@H]([C@@H](C)O)NC(=O)CNC(=O)[C@@H]2CSSC[C@@H]3NC(=O)[C@H](CCC(N)=O)NC(=O)[C@H](Cc4ccccc4)NC(=O)[C@H](C)NC(=O)[C@H]([C@@H](C)O)NC(=O)[C@H](CSSC[C@H](NC(=O)[C@H](Cc4ccccc4)NC(=O)[C@H](CO)NC(=O)[C@H](CC(C)C)NC(=O)[C@H](CCCNC(=N)N)NC(=O)[C@H](Cc4ccc(O)cc4)NC(=O)[C@H](CCCCN)NC(=O)[C@H](CCSC)NC(=O)[C@H](CO)NC(=O)[C@H](Cc4c[nH]cn4)NC(=O)[C@H](CCCCN)NC3=O)C(=O)N[C@@H](CCCNC(=N)N)C(=O)N[C@@H](CCCCN)C(=O)N[C@@H](CCCCN)C(=O)N2)NC(=O)[C@H](CCCNC(=N)N)NC(=O)[C@H](CO)NC(=O)[C@H](CCCCN)NC(=O)[C@@H]2CCCN2C(=O)[C@H]([C@@H](C)CC)NC(=O)[C@H]([C@@H](C)O)NC(=O)[C@H](CC(=O)O)NC1=O [[Lys31]ShK] |  |  |  | IC50 [2]: 5.98 nM; IC50 (hKv1.3): 1.42 nM; IC50 [3]: 27.9 nM |
| CC[C@H](C)[C@@H]1NC(=O)[C@@H](NC(=O)[C@H](CO)NC(=O)[C@@H](N)CCCNC(=N)N)CSSC[C@@H](C(=O)O)NC(=O)[C@H](CCCCN)NC(=O)CNC(=O)[C@@H]2CSSC[C@@H]3NC(=O)[C@H](CCC(N)=O)NC(=O)[C@H](Cc4ccccc4)NC(=O)[C@H](C)NC(=O)[C@H]([C@@H](C)O)NC(=O)[C@H](CSSC[C@H](NC(=O)[C@H](Cc4ccccc4)NC(=O)[C@H](CO)NC(=O)[C@H](CC(C)C)NC(=O)[C@H](CCCNC(=N)N)NC(=O)[C@H](Cc4ccc(O)cc4)NC(=O)[C@H](CCCCN)NC(=O)[C@H](CCSC)NC(=O)[C@H](CO)NC(=O)[C@H](Cc4c[nH]cn4)NC(=O)[C@H](CCCCN)NC3=O)C(=O)N[C@@H](CCCNC(=N)N)C(=O)N[C@@H](CCCCN)C(=O)N[C@@H]([C@@H](C)O)C(=O)N2)NC(=O)[C@H](CCCNC(=N)N)NC(=O)[C@H](CO)NC(=O)[C@H](CCCCN)NC(=O)[C@@H]2CCCN2C(=O)[C@H]([C@@H](C)CC)NC(=O)[C@H]([C@@H](C)O)NC(=O)[C@H](CC(=O)O)NC1=O [[Lys34]ShK] |  |  |  | IC50 [2]: 0.067 nM; IC50 (hKv1.3): 0.15 nM; IC50 [3]: 0.136 nM |
| CCCC[C@@H]1NC(=O)[C@H](CO)NC(=O)[C@H](Cc2c[nH]cn2)NC(=O)[C@H](CCCCN)NC(=O)[C@@H]2CSSC[C@@H]3NC(=O)[C@H]([C@@H](C)O)NC(=O)[C@H](CCCCN)NC(=O)[C@H](CCCNC(=N)N)NC(=O)[C@H](CSSC[C@H](NC(=O)[C@H](CCCNC(=N)N)NC(=O)[C@H](CO)NC(=O)[C@H](CCCCN)NC(=O)[C@@H]4CCCN4C(=O)[C@H]([C@@H](C)CC)NC(=O)[C@H]([C@@H](C)O)NC(=O)[C@H](CC(=O)O)NC(=O)[C@H]([C@@H](C)CC)NC(=O)[C@@H](NC(=O)[C@H](CO)NC(=O)[C@@H](N)CCCNC(=N)N)CSSC[C@@H](C(N)=O)NC(=O)[C@H]([C@@H](C)O)NC(=O)CNC3=O)C(=O)N[C@@H]([C@@H](C)O)C(=O)N[C@@H](C)C(=O)N[C@@H](Cc3ccccc3)C(=O)N[C@@H](CCC(N)=O)C(=O)N2)NC(=O)[C@H](Cc2ccccc2)NC(=O)[C@H](CO)NC(=O)[C@H](CC(C)C)NC(=O)[C@H](CCCNC(=N)N)NC(=O)[C@H](Cc2ccc(O)cc2)NC(=O)[C@H](CCCCN)NC1=O [[Nle21]ShK-amide] |  |  |  | IC50 [2]: 0.325 nM; IC50 (hKv1.3): 0.04 nM; IC50 [3]: 1.13 nM |
| Fc.L20.FcLoop(ShK) (Fc fusion) |  |  |  | In vitro whole blood assay (inhibition of IL-2) IC50 (human Kv1.3 [1]): 2.01 nM |
| FcLoop(ShK).L25.Fc (Fc fusion) |  |  |  | In vitro whole blood assay (inhibition of IL-2) IC50 (human Kv1.3 [1]): 1.91 nM |
| FcLoopShk/FcLoopShk (bivalent Fc) (Fc fusion) |  |  |  | In vitro whole blood assay (inhibition of IL-2) IC50 (human Kv1.3 [1]): 2 nM |
| HmK (peptide) | 0.9 nM | 1.2 nM | 0.85 nM | Kv1.1 (IWQ) IC50 (human Kv1.1): 0.015 nM |
| Monovalent Fc/Fc-L10-ShK[2-35] heterodimer (Fc fusion) |  |  |  | WB (IFNg) IC50 (human Kv1.3 [4]): 5.2 nM; WB (IL-2) IC50 (human Kv1.3 [4]): 2.15 nM |
| [1-Nal1]ShK (peptide) | 0.225 nM | 0.247 nM | 0.222 nM | Kv1.1 (IWQ) IC50 (human Kv1.1): 0.005 nM |
| [1-Nal2]ShK (peptide) | 0.25 nM | 0.258 nM | 0.223 nM |  |
| [1-Nal4]ShK (peptide) | 0.15 nM | 0.317 nM | 0.274 nM |  |
| [1-Nal5]ShK (peptide) |  | 31.9 nM | 70.4 nM |  |

| Compound | Kv1.3 (IWQ) IC50 (human Kv1.3 [1]) | WB (IFNg) IC50 (human Kv1.3 [1]) | WB (IL-2) IC50 (human Kv1.3 [1]) | other results |
| --- | --- | --- | --- | --- |
| [1-Nal6]ShK (peptide) | 0.15 nM | 0.962 nM | 0.86 nM |  |
| [1-Nal7]ShK (peptide) | 0.699 nM | 18 nM | 11.6 nM |  |
| [1-Nal10]ShK (peptide) | 0.206 nM | 0.255 nM | 0.205 nM |  |
| [1-Nal11]ShK (peptide) | 0.922 nM | 1.65 nM | 1.14 nM |  |
| [1-Nal14]ShK (peptide) |  | 0.11 nM | 0.089 nM |  |
| [1-Nal15]ShK (peptide) | 0.072 nM | 0.291 nM | 0.184 nM | Kv1.1 (IWQ) IC50 (human Kv1.1): 0.009 nM |
| [1-Nal16]ShK (peptide) | 0.699 nM | 9.55 nM | 28.9 nM |  |
| [1-Nal18]ShK (peptide) | 0.471 nM | 0.375 nM | 0.419 nM |  |
| [1-Nal20]ShK (peptide) | 2.11 nM | 100 nM | 100 nM |  |
| [1-Nal21]ShK (peptide) | 0.669 nM | 8.13 nM | 6.59 nM |  |
| [1-Nal25]ShK (peptide) | 0.106 nM | 0.084 nM | 0.061 nM |  |
| [1-Nal26]ShK (peptide) | 0.352 nM | 0.573 nM | 0.357 nM |  |
| [1-Nal27]ShK (peptide) | 0.144 nM | 2.84 nM | 1.07 nM |  |
| [1-Nal29]ShK (peptide) |  | 8.08 nM | 4.72 nM |  |
| [1-Nal31]ShK (peptide) |  |  |  | Kv1.1 (IWQ) IC50 (human Kv1.1): 0.004 nM |
| [1-Nal34]ShK (peptide) | 0.077 nM | 0.063 nM | 0.018 nM |  |
| [Dab16]ShK (peptide) | 0.082 nM |  | 0.086 nM |  |
